Measurements from patent US20030148511A1.

Biological target: human granzyme B (human) (UniProt P10144)
Experiment: cell-based or functional assay

Sequence of UniProt P10144 (P10144 21-247 limits assumed): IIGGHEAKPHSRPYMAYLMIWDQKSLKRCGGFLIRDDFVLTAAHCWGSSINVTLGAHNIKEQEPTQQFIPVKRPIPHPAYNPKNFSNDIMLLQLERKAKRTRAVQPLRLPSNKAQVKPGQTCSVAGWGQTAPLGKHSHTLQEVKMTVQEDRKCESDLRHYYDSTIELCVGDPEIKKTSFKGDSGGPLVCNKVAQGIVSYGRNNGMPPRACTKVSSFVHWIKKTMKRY

Substance: serine protease inhibitor 6 (SPI6), mouse serpin
- apoptosis of Jurkat cells (% of cells YOPRO-1-positive) after perforin and human granzyme B (% of cells YOPRO-1-positive): 27
